Results on four molecules are retold here after patent publication US20170073408A1 (Amgen, published 2017).

To fix the notation:
B1: anti-activin A monoclonal antibody A2 (antibody, human IgG2, kappa, V domains shown)
VH: QVQLVESGGGVVQPGRSLRLSCAASGFTFSSYGMHWVRQAPGKGLEWVAVIWYDGSNKYHADSVKGRFTISRDNSKNTLYLQVNSLRAEDTAVYYCVRSRNWNYDNYYYGLDVWGQGTTVTVSS
VL: DIQMTQSPSSLSASVGDRVTITCRASQGIRNNLGWYQQKPGKAPKRLIYAASSLQSGVPSRFSGSGSGTEFTLTISSLQPEDFTTYYCLQHNSYPWTFGQGTKVEIKR
notes: Fully human antibody from XenoMouse hybridoma; also called L2H2
B3: recombinant human activin A (mature) (ligand)
chain: GLECDGKVNICCKKQFFVSFKDIGWNDWIIAPSGYHANYCEGECPSHIAGTSGSSLSFHSTVINHYRMRGHSPFANLKSCCVPTKLRPMSMLYYDDGQNIIKKDIQNMIVEECGCS
notes: also called r-HuActivin A; rhActivin A
B4: anti-activin A monoclonal antibody A1 (antibody, human IgG2, lambda, V domains shown)
VH: QVQLVQSGAEVKKPGASVKVSCKASGYTFTSYGLSWVRQAPGQGLEWMGWIIPYNGNTNSAQKLQGRVTMTTDTSTSTAYMELRSLRSDDTAVYFCARDRDYGVNYDAFDIWGQGTMVTVSS
VL: not shown
notes: Fully human antibody from XenoMouse hybridoma (strains giving IgG2 kappa or IgG4 kappa); also called L1H1; Mab A1

Assay [1] has as its target B3. As to the kind of experiment: BIAcore blocking assay, 1 nM activin A; competitor rhActivin RIB/Fc chimera on chip. As for the experimental part: (§1) Blocking assays were conducted on immobilized recombinant human activin RIB-Fc chimera surfaces, recombinant human activin RIIB-Fc chimera surfaces, and recombinant human RIIA-Fc chimera recombinant surfaces, as described in Example 5. Monoclonal antibodies A1, A2, AKA1, and AKA2 on each chimera surface were incubated with 1 nM activin A, and the relative binding response (%) was measured.

Assay [2] concerns the target B3. In words: Biacore: 1 nM Activin A + sample over rhActivin RIIB/Fc Chimera surface; rising ('carry on') curve. As for the experimental part:
as §1
A general note: Surface plasmon resonance follows binding to a sensor surface in real time, without labels.

Assay [3] has as its target B3. As to the kind of experiment: affinity analysis of Example 15 (method of the KD not given).
For assay [4], the target named is T1, A/B13-39.
T1 construct: also called Activin A 13/39 B
T1 activin A/B chimeric subunit: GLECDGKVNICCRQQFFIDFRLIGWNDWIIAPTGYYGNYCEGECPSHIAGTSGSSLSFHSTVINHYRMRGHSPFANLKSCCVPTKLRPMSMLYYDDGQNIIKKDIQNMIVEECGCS
In words: Biacore blocking: 100 nM antibody + diluted conditioned medium (CM) of the ligand over ActRIB-Fc surface.

Assay [5] deals with B3. In words: Biacore blocking: 1 nM Activin A + antibody over rhActRIB-Fc chimera surface. No unit in the drawn table; M by Table 7, which prints this value rounded as 0.18 nM.
In assay [6] the target is T2, activin B (UniProt P09529 293-407).
T2 construct: Bought (R & D Systems)
T2 sequence (looked up): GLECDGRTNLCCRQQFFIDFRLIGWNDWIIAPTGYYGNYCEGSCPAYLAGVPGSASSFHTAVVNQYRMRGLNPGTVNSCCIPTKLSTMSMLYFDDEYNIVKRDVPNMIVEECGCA
As to the kind of experiment: affinity analysis of Example 15 (antibody immobilized on a surface).

Assay [7] concerns the target T3, BMP4 (UniProt P12644 293-408).
T3 construct: Bought
T3 sequence (looked up): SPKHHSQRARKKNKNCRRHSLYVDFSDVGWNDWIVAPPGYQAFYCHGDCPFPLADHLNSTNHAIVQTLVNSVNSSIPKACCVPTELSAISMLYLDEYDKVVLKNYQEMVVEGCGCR
In words: BIAcore, antibody pre-incubated with ligand, ActRIIB/Fc on chip. Here is the method: (§2) These assays were performed using BlAcore® technology, to determine the selectivity of binding of antibodies A1, A2 and A3 to various activins and other TGF-β family members, including activin A, activin B, activin AB, inhibin A, GDF-8, GDF-11, TGF-β-1, TGF-β-3, and BMP4 (all from R & D Systems). […] Because BlAcore assays detect changes in the refractive index, the difference between the response detected with injection over the immobilized receptor surfaces compared with the response detected with injection over the control surface in the absence of any antibody represents the actual binding of the various ligands to the receptor. With pre-incubation of antibodies and activin and TGF-β molecules, a change (increase or decrease) in binding response indicates antibody binding to the TGFβ family of molecules. The antibodies all bound to activin A but not to activin B, GDF-8, GDF-11, TGF-β-1, TGF-β-3, and BMP4, thus indicating specificity for activin A.

The target of assay [8] is T4, GDF-11 (UniProt O95390 299-407).
T4 construct: Bought
T4 sequence (looked up): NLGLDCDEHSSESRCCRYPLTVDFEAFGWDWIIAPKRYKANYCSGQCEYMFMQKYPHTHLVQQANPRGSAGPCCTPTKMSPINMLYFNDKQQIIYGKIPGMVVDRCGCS
Described as above. Here is the method:
as §2

Assay [9] deals with T5, GDF-8 (UniProt O14793 267-375).
T5 construct: Bought
T5 sequence (looked up): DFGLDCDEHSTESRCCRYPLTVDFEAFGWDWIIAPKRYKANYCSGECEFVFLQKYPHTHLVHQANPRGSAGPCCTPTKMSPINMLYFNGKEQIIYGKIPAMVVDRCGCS
Described as above. Here is the method:
as §2

Assay [10] concerns the target T6, TGF-β-3 (UniProt P10600 301-412).
T6 construct: Bought
T6 sequence (looked up): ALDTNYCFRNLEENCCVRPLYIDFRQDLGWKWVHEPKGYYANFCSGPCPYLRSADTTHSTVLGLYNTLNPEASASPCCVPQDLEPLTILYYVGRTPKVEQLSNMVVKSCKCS
The description is as above. As for the experimental part:
as §2

The target in assay [11] is T7, TGF-β-1 (UniProt P01137 279-390).
T7 construct: Bought
The assay is described as above. As for the experimental part:
as §2

Assay [12] concerns the target B3. As to the kind of experiment: cell-based or functional assay.
For assay [13], the target named is B3. As to the kind of experiment: KinExA solution equilibrium, activin A-coated beads. Here is the method:
(§3) Solution-based equilibrium-binding assays using KinExA™ technology (Sapidyne Instruments, Inc.) were used to determine the dissociation equilibrium (KD) of activin A binding to antibody molecules. This solution-based assay is considered to be more sensitive than the BIAcore assay in some instances. Reacti-Gel™ 6× was pre-coated with about 50 μg/ml activin A overnight, and then blocked with BSA. 30 pM and 100 pM of antibody samples were incubated with various concentrations (0.5 pM to 5 nM) of activin A in sample buffer at room temperature for 8 hours before being run through the activin A-coated beads. The amount of the bead-bound antibody was quantified by fluorescent (Cy5) labeled goat anti-human-Fc antibody at 1 mg/ml in superblock. The binding signal was proportional to the concentration of free antibody at equilibrium with a given activin A concentration. KD was obtained from the nonlinear regression of the competition curves using a dual-curve one-site homogeneous binding model provided in the KinEx ATM software (Sapidyne Instruments, Inc.). […] A2 and A3 bound to activin A at ˜15 pM and ˜8 pM, respectively.
For orientation: Kinetic exclusion samples the free partner from a solution-phase mixture.

The target in assay [14] is T8, A/B82-107.
T8 activin A/B chimeric subunit: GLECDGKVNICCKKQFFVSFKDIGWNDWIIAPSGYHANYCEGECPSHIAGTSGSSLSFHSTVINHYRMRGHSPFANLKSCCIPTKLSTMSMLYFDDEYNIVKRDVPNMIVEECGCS
In words: Biacore blocking: 100 nM antibody + diluted conditioned medium (CM) of the ligand over ActRIB-Fc surface.

The target of assay [15] is B1. As to the kind of experiment: KinExA solution equilibrium, antibody A2 (A30) fixed at 100 pM. Here is the method: as §3
Assay [16] has as its target B4. As to the kind of experiment: KinExA solution equilibrium, antibody A1 (A52) fixed at 100 pM. As for the experimental part:
as §3

Assay [17] addresses T9, A31-2.
T9 construct: bars A52-1, A31-2, A30-2) make A3 likely; not assigned here
In words: KinExA solution equilibrium, antibody A31 fixed at 30 pM. As for the experimental part: as §3

Assay [18] addresses T9, A31-2. As to the kind of experiment: KinExA solution equilibrium, antibody A31 fixed at 100 pM. As for the experimental part:
as §3

Assay [19] concerns the target B4. As to the kind of experiment: KinExA solution equilibrium, antibody A1 (A52) fixed at 30 pM. As for the experimental part: as §3
For assay [20], the target named is B1. As to the kind of experiment: KinExA solution equilibrium, antibody A2 (A30) fixed at 30 pM. Here is the method:
as §3

Assay [21] has as its target B3. As to the kind of experiment: Biacore blocking: 1 nM Activin A + antibody over rhActRIB-Fc chimera surface. No unit in the drawn table; M by Table 7, which prints this value rounded as 0.29 nM.
The target in assay [22] is B3. As to the kind of experiment: BIAcore blocking assay, 1 nM activin A; competitor rhActivin RIIA/Fc chimera on chip. As for the experimental part:
as §1

Assay [23] has as its target B3. As to the kind of experiment: BIAcore blocking assay, 1 nM activin A; competitor rhActivin RIIB/Fc chimera on chip. As for the experimental part: as §1

T7 sequence (P01137 279-390 limits assumed): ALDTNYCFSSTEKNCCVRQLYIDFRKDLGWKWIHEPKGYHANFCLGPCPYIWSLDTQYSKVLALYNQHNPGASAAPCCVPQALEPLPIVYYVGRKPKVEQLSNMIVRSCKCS

In the case of B1, the results for the EC50 in assay [1] and in [5] were 0.18 nM and 0.177 nM, respectively. The “EC50 (read off the curve)” value in assay [2] is approximately 1 nM. Further, the Kd is approximately 0.025 nM in [3] and approximately 0.015 nM in assay [13]. The binding result was “binds” in assay [4]; “no binding” in assay [6]; “no binding” in assay [7]; “no binding” in assay [8]; “no binding” in assay [9]; “no binding” in assay [10]. Besides, the binding result in assay [11] is given as “no binding”. Also, the “Cell IC50 (nM); luciferase activity of C2C12/pMARE reporter cells, activin A fixed at 4 nM” value in assay [12] is less than 3 nM.

B2: anti-activin A monoclonal antibody A3 (antibody, human IgG2, kappa, V domains shown)
VH: EVQLVESGGGLVQPGGSLRLSCAASGFTFSSYWMSWVRQAPGKGLECVANIKQDGSEEYYVDSVKGRFTISRDNAKNSLYLQMNSLRAEDTAVYYCARGSSSWYYYNYGMDVWGQGTTVTVSS
VL: DIQMTQSPSSLSASVGDRVTITCRASQGIRNDLGWYQQKPGKAPKRLIYAASSLQSGVPSRFSGSGSGTEFTLTISSLQPEDFATYYCRQQNTYPLTFGGGTKVEIKR
notes: Fully human antibody from XenoMouse hybridoma; also called L3H3
Consider B2, for which the Kd was approximately 0.011 nM in [3] and approximately 0.008 nM in [13]. The binding result in assay [14] is reported as “no binding (tested: 100 nM)”; in assay [4], “binds”; in assay [6], “no binding”; in assay [7], “no binding”; in assay [8] it was “no binding”; in [9], “no binding”. For the same molecule, the binding result in assay [10] and in assay [11] was “no binding” throughout. The “Cell IC50 (nM); luciferase activity of C2C12/pMARE reporter cells, activin A fixed at 4 nM” value in assay [12] was less than 3 nM.

On to B3, for which the “IC50 (read off the curve)” value is approximately 0.1 nM in assay [15]; approximately 0.07 nM in [16]; approximately 0.03 nM in [17]; approximately 0.08 nM in assay [18]; approximately 0.02 nM in assay [19]; approximately 0.04 nM in assay [20].

As for B4, the EC50 in [1], in [21], in assay [22] and in [23] was 0.29 nM throughout. In assay [3], the Kd is approximately 0.003 nM. Moreover, the binding result is “no binding (tested: 100 nM)” in assay [4]; “no binding” in assay [6]; “no binding” in assay [7]; “no binding” in [8]; “no binding” in assay [9]; “no binding” in assay [10]. Further, the binding result in [11] is given as “no binding”. For the same molecule, in [12], the “Cell IC50 (nM); luciferase activity of C2C12/pMARE reporter cells, activin A fixed at 4 nM” value was less than 3 nM.

The term EC50 denotes the concentration at which the effect is half-maximal. The EC50 (read off the curve) is the concentration giving half of the maximal effect. Usually Kd stands for a measure of binding affinity in units of concentration.
